This is an account of results in publication PMC6854500.

One may read the stoichiometry N as a count of units in the complex or per binding partner.

Assay [1] has as its target dissociated PEDV CV777 S1 subunit (S1 ring) (porcine epidemic diarrhea virus, strain CV777) (UniProt Q91AV1). Description: cryo-EM structure; roughly 10% of the particles of the PEDV CV777 S data set, 2D classes and a 9.4-Å reconstruction without imposed symmetry (C1).
Assay [2] has as its target PEDV CV777 S soluble ectodomain (residues 1 to 1319) with C-terminal T4 fibritin trimerization motif (porcine epidemic diarrhea virus, strain CV777 | bacteriophage T4) (UniProt Q91AV1). Description: SEC; Superose6 10/300 column, 2 mM Tris (pH 8.0), 200 mM NaCl, 0.02% NaN3; single symmetrical peak. On the technique in general: SEC sorts molecules by how far they enter the pores of the column.

The target is the same in assay [3]. Description: cryo-EM structure; PEDV S CV777 at 0.4 mg/ml in 2 mM Tris (pH 8.0), 200 mM NaCl, 0.02% NaN3, 0.01% Amphipol A8-35; Titan Krios 300 kV; 3.3 Å without symmetry, 3.1 Å with C3; a 10-Å reconstruction with 2 mM 3'-sialyllactose was indistinguishable.

“dissociated PEDV CV777 S1 subunit (S1 ring) (from UniProt Q91AV1 26-1383) (domain or fragment)”: the stoichiometry N in assay [1] came to 3.
Consider “PEDV CV777 S soluble ectodomain (residues 1 to 1319) with C-terminal T4 fibritin trimerization motif (from UniProt Q91AV1 26-1319) (domain or fragment)”, for which the stoichiometry N in assay [2] and in assay [3] was 3 each time.
